Experimental findings from US20150344570A1 (published 2015) are described below.

Test [1] deals with T1, FcγRIIb extracellular domain with C-terminal His tag (human, UniProt P31994 43-217).
T1 construct: extracellular domain; also called FcgRIIb; 2b; not shown: His tag attached to the C terminus
T1 sequence (looked up): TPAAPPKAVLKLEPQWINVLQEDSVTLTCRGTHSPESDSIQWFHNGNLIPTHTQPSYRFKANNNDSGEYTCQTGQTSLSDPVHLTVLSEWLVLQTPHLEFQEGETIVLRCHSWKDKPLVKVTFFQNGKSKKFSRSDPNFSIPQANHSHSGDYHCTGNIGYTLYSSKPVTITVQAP
Description: SPR (Biacore), antibody captured on antigen peptide chip, FcγR as analyte; relative binding. As for the experimental part: (§1) The heterodimerized antibodies He Abs in which one of the H chains was introduced with an alteration were assayed for their binding activities to each activating FcγR and inhibitory FcγR according to the method described in Example 4. […] The activating FcγRs in FIGS. 26, 27, 28, and 29 are FcγRIa, FcγRIIa (R), FcγRIIa (H), and FcγRIIIa, respectively.
(§2) Analysis of interaction between objective antibody and the FcγR was carried out using Biacore T100 (GE Healthcare). HBS-EP+ (GE Healthcare) was used as the running buffer, and the measurement temperature was set to 25° C. Chips produced by immobilizing the antigen peptide by the amine coupling method to a Series S Sencor Chip CM5 (GE Healthcare), or alternatively, chips produced by allowing preliminarily biotinylated antigen peptides to interact with and immobilize onto a Series S Sensor Chip SA (certified) (GE Healthcare) were used. Antibodies of interest were captured onto an antigen peptide-immobilized chip, and allowed to interact to each FcγR diluted with running buffer. To regenerate and repeatedly use the chip, the antibodies captured on the chip were washed off by reacting 10 mM glycine-HCl, pH 1.5.
(SPR reads the build-up and loss of mass on a sensor chip optically.)

Test [2] has as its target T2, FcγRIIIa extracellular domain with C-terminal His tag (human, UniProt P08637 17-208).
T2 construct: extracellular domain; also called FcgRIIIa; 3a; not shown: His tag attached to the C terminus
Described as above. As for the experimental part:
as §1, §2

The target in test [3] is T3, FcγRIa extracellular domain with C-terminal His tag (human, UniProt P12314 16-292).
T3 construct: extracellular domain; Soluble receptor used as analyte in Biacore; also called FcgRI
T3 sequence (P12314 16-292): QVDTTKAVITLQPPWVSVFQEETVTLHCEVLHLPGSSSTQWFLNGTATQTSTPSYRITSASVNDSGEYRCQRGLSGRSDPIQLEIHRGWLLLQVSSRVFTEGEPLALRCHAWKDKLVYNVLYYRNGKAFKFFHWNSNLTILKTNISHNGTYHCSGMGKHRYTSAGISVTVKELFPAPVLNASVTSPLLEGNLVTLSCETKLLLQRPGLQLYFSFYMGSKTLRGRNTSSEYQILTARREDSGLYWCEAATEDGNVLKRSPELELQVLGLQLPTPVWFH
Description: SPR (Biacore), antibody captured, FcγR as analyte; binding relative to GpH7-A5/GpH7-B3/GpL16-k0 = 100.

For test [4], the target named is T4, FcγRIIb extracellular domain with C-terminal His tag (human, UniProt P31994 43-217).
T4 construct: extracellular domain; Soluble receptor used as analyte in Biacore; also called FcgRIIb
T4 sequence (looked up): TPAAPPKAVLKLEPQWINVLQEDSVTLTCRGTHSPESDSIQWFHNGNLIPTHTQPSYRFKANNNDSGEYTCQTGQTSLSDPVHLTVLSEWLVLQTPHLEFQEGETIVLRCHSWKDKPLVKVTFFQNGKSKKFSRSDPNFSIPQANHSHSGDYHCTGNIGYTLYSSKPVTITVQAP
The test is described as above.

The target of test [5] is T3, FcγRIa extracellular domain with …. Description: ratio He/Con_1a : He/Con_2b (FcγRIa over FcγRIIb), SPR (Biacore).

T2 sequence (P08637 17-208): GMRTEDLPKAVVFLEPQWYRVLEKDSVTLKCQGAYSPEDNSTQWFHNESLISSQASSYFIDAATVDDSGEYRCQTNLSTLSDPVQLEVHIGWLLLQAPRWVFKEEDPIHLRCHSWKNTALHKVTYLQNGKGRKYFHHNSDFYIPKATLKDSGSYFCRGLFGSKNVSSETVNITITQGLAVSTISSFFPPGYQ

B1: GpH7-A5/GpH7-B3 variant L328_09D/GpL16-k0 (He Ab) (antibody, human IgG1, kappa)
heavy 1: not shown
heavy 2: not shown
light: DIVMTQSPLSLPVTPGEPASISCQASESLVHSNRNTYLHWYLQKPGQSPQLLIYKVSNRFSGVPDRFSGSGSGTDFTLKISRVEAEDVGVYYCSQNTHVPPTFGQGTKVEIERTVAAPSVFIFPPSDEQLKSGTASVVCLLNNFYPREAKVQWKVDNALQSGNSQESVTEQDSKDSTYSLSSTLTLSKADYEKHKVYACEVTHQGLSSPVTKSFNRGEC
notes: Heterodimerized antibody with the alteration in one H chain only
For the molecule B1, the He/Con_2b in test [1] was 199 % of GpH7-A5/GpH7-B3/GpL16-k0 (=100). The He/Con_3a in test [2] was 47.8 % of GpH7-A5/GpH7-B3/GpL16-k0 (=100).

B2: GpH7-A5/GpH7-B3 variant P331_14T/GpL16-k0 (He Ab) (antibody, human IgG1, kappa)
heavy 1: not shown
heavy 2: not shown
light: DIVMTQSPLSLPVTPGEPASISCQASESLVHSNRNTYLHWYLQKPGQSPQLLIYKVSNRFSGVPDRFSGSGSGTDFTLKISRVEAEDVGVYYCSQNTHVPPTFGQGTKVEIERTVAAPSVFIFPPSDEQLKSGTASVVCLLNNFYPREAKVQWKVDNALQSGNSQESVTEQDSKDSTYSLSSTLTLSKADYEKHKVYACEVTHQGLSSPVTKSFNRGEC
notes: as for B1
On to B2, for which the He/Con_2b in test [1] is 99.8 % of GpH7-A5/GpH7-B3/GpL16-k0 (=100). Further, in test [2], the He/Con_3a was 74.1 % of GpH7-A5/GpH7-B3/GpL16-k0 (=100).

B3: GpH7-A5/GpH7-B3 variant A327_10E/GpL16-k0 (antibody, human IgG1, kappa)
heavy 1: not shown
heavy 2: not shown
light: DIVMTQSPLSLPVTPGEPASISCQASESLVHSNRNTYLHWYLQKPGQSPQLLIYKVSNRFSGVPDRFSGSGSGTDFTLKISRVEAEDVGVYYCSQNTHVPPTFGQGTKVEIERTVAAPSVFIFPPSDEQLKSGTASVVCLLNNFYPREAKVQWKVDNALQSGNSQESVTEQDSKDSTYSLSSTLTLSKADYEKHKVYACEVTHQGLSSPVTKSFNRGEC
notes: Heterodimerized IgG1, mutation in the GpH7-B3 chain only; also called He Ab
B3: in test [3], the He/Con_1a is 103 control = 100. The He/Con_2b in test [4] worked out at 140 control = 100. In test [5], the “He_1a/2b (Ia/IIb)” value came out at 0.74.

B4: GpH7-A5/GpH7-B3 variant L328_07I/GpL16-k0 (He Ab) (antibody, human IgG1, kappa)
heavy 1: not shown
heavy 2: not shown
light: DIVMTQSPLSLPVTPGEPASISCQASESLVHSNRNTYLHWYLQKPGQSPQLLIYKVSNRFSGVPDRFSGSGSGTDFTLKISRVEAEDVGVYYCSQNTHVPPTFGQGTKVEIERTVAAPSVFIFPPSDEQLKSGTASVVCLLNNFYPREAKVQWKVDNALQSGNSQESVTEQDSKDSTYSLSSTLTLSKADYEKHKVYACEVTHQGLSSPVTKSFNRGEC
notes: as for B1
Regarding B4, the He/Con_2b in test [1] is 160 % of GpH7-A5/GpH7-B3/GpL16-k0 (=100). In addition, in test [2], the He/Con_3a was 84 % of GpH7-A5/GpH7-B3/GpL16-k0 (=100).

B5: GpH7-A5/GpH7-B3 variant P331_10E/GpL16-k0 (He Ab) (antibody, human IgG1, kappa)
heavy 1: not shown
heavy 2: not shown
light: DIVMTQSPLSLPVTPGEPASISCQASESLVHSNRNTYLHWYLQKPGQSPQLLIYKVSNRFSGVPDRFSGSGSGTDFTLKISRVEAEDVGVYYCSQNTHVPPTFGQGTKVEIERTVAAPSVFIFPPSDEQLKSGTASVVCLLNNFYPREAKVQWKVDNALQSGNSQESVTEQDSKDSTYSLSSTLTLSKADYEKHKVYACEVTHQGLSSPVTKSFNRGEC
notes: as for B1
Consider B5, for which the He/Con_2b in test [1] was 116 % of GpH7-A5/GpH7-B3/GpL16-k0 (=100). Also, the He/Con_3a in test [2] was 75.1 % of GpH7-A5/GpH7-B3/GpL16-k0 (=100).

B6: GpH7-A5/GpH7-B3 variant P331_08L/GpL16-k0 (He Ab) (antibody, human IgG1, kappa)
heavy 1: not shown
heavy 2: not shown
light: DIVMTQSPLSLPVTPGEPASISCQASESLVHSNRNTYLHWYLQKPGQSPQLLIYKVSNRFSGVPDRFSGSGSGTDFTLKISRVEAEDVGVYYCSQNTHVPPTFGQGTKVEIERTVAAPSVFIFPPSDEQLKSGTASVVCLLNNFYPREAKVQWKVDNALQSGNSQESVTEQDSKDSTYSLSSTLTLSKADYEKHKVYACEVTHQGLSSPVTKSFNRGEC
notes: as for B1
In the case of B6, the He/Con_2b in test [1] was 95.7 % of GpH7-A5/GpH7-B3/GpL16-k0 (=100). The He/Con_3a in test [2] is 72.1 % of GpH7-A5/GpH7-B3/GpL16-k0 (=100).

B7: GpH7-A5/GpH7-B3 variant L328_20W/GpL16-k0 (He Ab) (antibody, human IgG1, kappa)
heavy 1: not shown
heavy 2: not shown
light: DIVMTQSPLSLPVTPGEPASISCQASESLVHSNRNTYLHWYLQKPGQSPQLLIYKVSNRFSGVPDRFSGSGSGTDFTLKISRVEAEDVGVYYCSQNTHVPPTFGQGTKVEIERTVAAPSVFIFPPSDEQLKSGTASVVCLLNNFYPREAKVQWKVDNALQSGNSQESVTEQDSKDSTYSLSSTLTLSKADYEKHKVYACEVTHQGLSSPVTKSFNRGEC
notes: as for B1
With B7, the He/Con_2b in test [1] was 235 % of GpH7-A5/GpH7-B3/GpL16-k0 (=100). Also, the He/Con_3a in test [2] was 37.4 % of GpH7-A5/GpH7-B3/GpL16-k0 (=100).

B8: GpH7-A5/GpH7-B3 variant P331_15Y/GpL16-k0 (He Ab) (antibody, human IgG1, kappa)
heavy 1: not shown
heavy 2: not shown
light: DIVMTQSPLSLPVTPGEPASISCQASESLVHSNRNTYLHWYLQKPGQSPQLLIYKVSNRFSGVPDRFSGSGSGTDFTLKISRVEAEDVGVYYCSQNTHVPPTFGQGTKVEIERTVAAPSVFIFPPSDEQLKSGTASVVCLLNNFYPREAKVQWKVDNALQSGNSQESVTEQDSKDSTYSLSSTLTLSKADYEKHKVYACEVTHQGLSSPVTKSFNRGEC
notes: as for B1
Regarding B8, in test [1], the He/Con_2b is 114 % of GpH7-A5/GpH7-B3/GpL16-k0 (=100). Also, the He/Con_3a in test [2] is 81.9 % of GpH7-A5/GpH7-B3/GpL16-k0 (=100).
